From patent US20210395777

Molecular target: AAV capsid expressed by the standard BEV1 infection and the v-cath deleted BEV2 infection in Sf9 cells

B1: V-CATH protease (Viral Cathepsin), encoded by the baculovirus v-cath gene of the BEV (protein)
chain: PLEFDWRRLNKVTSVKNQGMCGACWAFATLASLESQFAIKHNQLINLSEQQMIDCDFVDAGCNGGLLHTAFEAIIKMGGVQLESDYPYEADNNNCRMNSNKFLVQVKDCYRYITVYEEKLKDLLRLVGPIPMAIDAADIVNYKQGIIKYCFNSGLNHAVLLVGYGVENNIPYWTFKNTWGTDWGEDGFFRVQQNINACGMRNELASTAVIY
degradation products of the AAV capsid on Western immunoblot (BEV1 against v-cath deleted BEV2): Deletion of v-cath eliminated the degradation products.
